For test [1], the target named is T1, peptide 7 (human).
T1 sequence (peptide, N-terminus acetylated): LCLGRVPAQSGPL
Kind of test: PepSpot peptide array, control incubation.

For test [2], the target named is T2, peptide 118 (human).
T2 sequence (peptide, N-terminus acetylated): TNKVFTTETSRSI
Kind of test: PepSpot peptide array, control incubation.

The target of test [3] is T3, peptide 117 (human).
T3 sequence (peptide, N-terminus acetylated): SFTNKVFTTETSR
Kind of test: PepSpot peptide array, control incubation.

Test [4] deals with mouse GPVI on mouse platelets (mouse) (UniProt P0C191). Kind of test: cell-based or functional assay.
Chain of mouse GPVI on mouse platelets (mouse) (P0C191 22-313): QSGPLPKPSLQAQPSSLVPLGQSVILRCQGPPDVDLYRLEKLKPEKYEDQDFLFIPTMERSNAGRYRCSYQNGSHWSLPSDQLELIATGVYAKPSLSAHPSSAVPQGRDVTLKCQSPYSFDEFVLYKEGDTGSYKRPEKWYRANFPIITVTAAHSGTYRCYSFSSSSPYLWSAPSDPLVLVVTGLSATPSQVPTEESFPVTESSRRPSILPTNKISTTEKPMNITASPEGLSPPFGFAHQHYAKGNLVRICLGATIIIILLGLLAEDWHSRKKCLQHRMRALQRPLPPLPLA
Test [5] concerns the target Fc-GPVI-nt (immunoadhesin: extracellular domain of human GPVI fused via Gly-Gly-Arg to human IgG Fc, dimer) (human). Kind of test: competition ELISA, immobilized collagen as competitor. A general note: ELISA stands for enzyme-linked immunosorbent assay.

“And” between values parts separate entries of the source, which are not always exact repeats. Equal values may be shown once.

Results on 3 substances are retold here after patent US20070071744A1.

Chain of Fc-GPVI-nt (immunoadhesin: extracellular domain of human GPVI fused via Gly-Gly-Arg to human IgG Fc, dimer) (human) (chain, as listed by the source limits assumed): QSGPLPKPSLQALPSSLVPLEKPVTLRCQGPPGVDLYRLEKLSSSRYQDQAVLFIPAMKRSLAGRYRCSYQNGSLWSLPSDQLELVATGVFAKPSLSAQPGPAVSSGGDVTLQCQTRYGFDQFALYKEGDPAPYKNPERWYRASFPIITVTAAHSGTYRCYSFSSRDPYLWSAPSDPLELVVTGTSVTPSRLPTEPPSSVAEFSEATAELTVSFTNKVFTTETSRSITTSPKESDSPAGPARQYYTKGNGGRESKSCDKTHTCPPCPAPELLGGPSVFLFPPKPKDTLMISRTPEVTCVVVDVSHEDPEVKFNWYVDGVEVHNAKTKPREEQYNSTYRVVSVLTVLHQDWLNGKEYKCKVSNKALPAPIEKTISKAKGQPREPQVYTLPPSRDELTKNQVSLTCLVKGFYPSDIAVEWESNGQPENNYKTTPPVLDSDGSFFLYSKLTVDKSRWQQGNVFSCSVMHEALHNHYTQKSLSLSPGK

Regarding anti-rat-HRP (Sigma A9037) (antibody), the figures for the LU (Light Units) in test [1], in test [2] and in test [3] were 239 LU, 354 LU and 377 LU, respectively.
For the substance monoclonal antibody anti GPVI (JAQ1), in test [4], the ATP release is 1.09 nM ATP; the platelet aggregation of mouse platelet-rich plasma after stimulation with 2 µg collagen/ml was 2% and 1.5%.
Take “soluble collagen (solubilized fibrillar collagen) (ligand)”: the concentration required to reduce Fc-GPVI-nt binding by more than 50% in test [5] came to 100 µg/mL.
